According to patent US20260176319A1 (KALLYOPE, published 2026):
Starred links: 1 amine or outer side, 2 acyl side, 3 side chain; linkers in the order of their positions; H or OH if unused. Non-standard residues stand in square brackets, D forms with d. *: point of attachment. Trp(7-Me) = Cc1cccc2c(C[C@H](N)C(=O)O)c[nH]c12; C20 diacid = O=C(O)CCCCCCCCCCCCCCCCCCC(=O)*; d(γGlu) = O=C(O)[C@@H](CCC(=O)[*:2])N[*:1]; C18 diacid = O=C(O)CCCCCCCCCCCCCCCCC(=O)*; γGlu = O=C(O)[C@H](CCC(=O)[*:2])N[*:1]; Palmitoyl = CCCCCCCCCCCCCCCC(=O)*; 2CE‑PEG‑TMEA = not defined here; 3Pal = N[C@@H](Cc1cccnc1)C(=O)O; 5CTMPA = not defined here; Nle = CCCC[C@H](N)C(=O)O; Dap = NC[C@H](N)C(=O)O; AEEA = NCCOCCOCC(=O)O; βAla = NCCC(=O)O; Sar = CNCC(=O)O

B1: Peptide 244 (peptide)
peptide: {C20 diacid}-[γGlu][γGlu][AEEA][AEEA]GRHWAV[dA]HL[Nle]-NH2
SMILES: CCCC[C@H](NC(=O)[C@H](CC(C)C)NC(=O)[C@H](Cc1c[nH]cn1)NC(=O)[C@@H](C)NC(=O)[C@@H](NC(=O)[C@H](C)NC(=O)[C@H](Cc1c[nH]c2ccccc12)NC(=O)[C@H](Cc1c[nH]cn1)NC(=O)[C@H](CCCNC(=N)N)NC(=O)CNC(=O)COCCOCCNC(=O)COCCOCCNC(=O)CC[C@H](NC(=O)CC[C@H](NC(=O)CCCCCCCCCCCCCCCCCCC(=O)O)C(=O)O)C(=O)O)C(C)C)C(N)=O
B2: Peptide 251 (peptide)
peptide: {C20 diacid}-[γGlu][γGlu][AEEA][AEEA]GQHWAV[βAla]HL[Nle]-NH2
SMILES: CCCC[C@H](NC(=O)[C@H](CC(C)C)NC(=O)[C@H](Cc1c[nH]cn1)NC(=O)CCNC(=O)[C@@H](NC(=O)[C@H](C)NC(=O)[C@H](Cc1c[nH]c2ccccc12)NC(=O)[C@H](Cc1c[nH]cn1)NC(=O)[C@H](CCC(N)=O)NC(=O)CNC(=O)COCCOCCNC(=O)COCCOCCNC(=O)CC[C@H](NC(=O)CC[C@H](NC(=O)CCCCCCCCCCCCCCCCCCC(=O)O)C(=O)O)C(=O)O)C(C)C)C(N)=O
B3: Peptide 253 (peptide)
peptide: {C20 diacid}-[γGlu][γGlu][AEEA][AEEA]RRH[Trp(7-Me)]AV[βAla]HL[Nle]-NH2
SMILES: CCCC[C@H](NC(=O)[C@H](CC(C)C)NC(=O)[C@H](Cc1c[nH]cn1)NC(=O)CCNC(=O)[C@@H](NC(=O)[C@H](C)NC(=O)[C@H](Cc1c[nH]c2c(C)cccc12)NC(=O)[C@H](Cc1c[nH]cn1)NC(=O)[C@H](CCCNC(=N)N)NC(=O)[C@H](CCCNC(=N)N)NC(=O)COCCOCCNC(=O)COCCOCCNC(=O)CC[C@H](NC(=O)CC[C@H](NC(=O)CCCCCCCCCCCCCCCCCCC(=O)O)C(=O)O)C(=O)O)C(C)C)C(N)=O
B4: Peptide 248 (peptide)
peptide: {C20 diacid}-[γGlu][γGlu][AEEA][AEEA]E[dS]EH[Trp(7-Me)]AV[βAla]HL[Nle]-NH2
SMILES: CCCC[C@H](NC(=O)[C@H](CC(C)C)NC(=O)[C@H](Cc1c[nH]cn1)NC(=O)CCNC(=O)[C@@H](NC(=O)[C@H](C)NC(=O)[C@H](Cc1c[nH]c2c(C)cccc12)NC(=O)[C@H](Cc1c[nH]cn1)NC(=O)[C@H](CCC(=O)O)NC(=O)[C@@H](CO)NC(=O)[C@H](CCC(=O)O)NC(=O)COCCOCCNC(=O)COCCOCCNC(=O)CC[C@H](NC(=O)CC[C@H](NC(=O)CCCCCCCCCCCCCCCCCCC(=O)O)C(=O)O)C(=O)O)C(C)C)C(N)=O
B5: Peptide 15 (peptide)
peptide: Palmitoyl-[d(γGlu)][AEEA][AEEA]GNHWAV[dA]HL[Nle][Sar]-NH2
SMILES: CCCCCCCCCCCCCCCC(=O)N[C@H](CCC(=O)NCCOCCOCC(=O)NCCOCCOCC(=O)NCC(=O)N[C@@H](CC(N)=O)C(=O)N[C@@H](Cc1c[nH]cn1)C(=O)N[C@@H](Cc1c[nH]c2ccccc12)C(=O)N[C@@H](C)C(=O)N[C@H](C(=O)N[C@H](C)C(=O)N[C@@H](Cc1c[nH]cn1)C(=O)N[C@@H](CC(C)C)C(=O)N[C@@H](CCCC)C(=O)N(C)CC(N)=O)C(C)C)C(=O)O
B6: Peptide 245 (peptide)
peptide: {C20 diacid}-[γGlu][γGlu][AEEA][AEEA][dF]N[3Pal]WAV[βAla]HL[Nle]-NH2
SMILES: CCCC[C@H](NC(=O)[C@H](CC(C)C)NC(=O)[C@H](Cc1c[nH]cn1)NC(=O)CCNC(=O)[C@@H](NC(=O)[C@H](C)NC(=O)[C@H](Cc1c[nH]c2ccccc12)NC(=O)[C@H](Cc1cccnc1)NC(=O)[C@H](CC(N)=O)NC(=O)[C@@H](Cc1ccccc1)NC(=O)COCCOCCNC(=O)COCCOCCNC(=O)CC[C@H](NC(=O)CC[C@H](NC(=O)CCCCCCCCCCCCCCCCCCC(=O)O)C(=O)O)C(=O)O)C(C)C)C(N)=O
B7: Peptide 243 (peptide)
peptide: {C18 diacid}-[γGlu][γGlu][AEEA][AEEA]GRHWAV[βAla]HL[Nle]-NH2
SMILES: CCCC[C@H](NC(=O)[C@H](CC(C)C)NC(=O)[C@H](Cc1c[nH]cn1)NC(=O)CCNC(=O)[C@@H](NC(=O)[C@H](C)NC(=O)[C@H](Cc1c[nH]c2ccccc12)NC(=O)[C@H](Cc1c[nH]cn1)NC(=O)[C@H](CCCNC(=N)N)NC(=O)CNC(=O)COCCOCCNC(=O)COCCOCCNC(=O)CC[C@H](NC(=O)CC[C@H](NC(=O)CCCCCCCCCCCCCCCCC(=O)O)C(=O)O)C(=O)O)C(C)C)C(N)=O
B8: Peptide 255 (peptide)
peptide: {C20 diacid}-[γGlu]E[AEEA][AEEA]SGEH[Trp(7-Me)]AV[βAla]HL[Nle]-NH2
SMILES: CCCC[C@H](NC(=O)[C@H](CC(C)C)NC(=O)[C@H](Cc1c[nH]cn1)NC(=O)CCNC(=O)[C@@H](NC(=O)[C@H](C)NC(=O)[C@H](Cc1c[nH]c2c(C)cccc12)NC(=O)[C@H](Cc1c[nH]cn1)NC(=O)[C@H](CCC(=O)O)NC(=O)CNC(=O)[C@H](CO)NC(=O)COCCOCCNC(=O)COCCOCCNC(=O)[C@H](CCC(=O)O)NC(=O)CC[C@H](NC(=O)CCCCCCCCCCCCCCCCCCC(=O)O)C(=O)O)C(C)C)C(N)=O
B9: Peptide 256 (peptide)
peptide: {C20 diacid}-[γGlu]E[AEEA][AEEA]SGRH[Trp(7-Me)]AV[βAla]HL[Nle]-NH2
SMILES: CCCC[C@H](NC(=O)[C@H](CC(C)C)NC(=O)[C@H](Cc1c[nH]cn1)NC(=O)CCNC(=O)[C@@H](NC(=O)[C@H](C)NC(=O)[C@H](Cc1c[nH]c2c(C)cccc12)NC(=O)[C@H](Cc1c[nH]cn1)NC(=O)[C@H](CCCNC(=N)N)NC(=O)CNC(=O)[C@H](CO)NC(=O)COCCOCCNC(=O)COCCOCCNC(=O)[C@H](CCC(=O)O)NC(=O)CC[C@H](NC(=O)CCCCCCCCCCCCCCCCCCC(=O)O)C(=O)O)C(C)C)C(N)=O
B10: Peptide 252 (peptide)
peptide: {C20 diacid}-[γGlu][γGlu][AEEA][AEEA]EGRH[Trp(7-Me)]AV[βAla]HL[Nle]-NH2
SMILES: CCCC[C@H](NC(=O)[C@H](CC(C)C)NC(=O)[C@H](Cc1c[nH]cn1)NC(=O)CCNC(=O)[C@@H](NC(=O)[C@H](C)NC(=O)[C@H](Cc1c[nH]c2c(C)cccc12)NC(=O)[C@H](Cc1c[nH]cn1)NC(=O)[C@H](CCCNC(=N)N)NC(=O)CNC(=O)[C@H](CCC(=O)O)NC(=O)COCCOCCNC(=O)COCCOCCNC(=O)CC[C@H](NC(=O)CC[C@H](NC(=O)CCCCCCCCCCCCCCCCCCC(=O)O)C(=O)O)C(=O)O)C(C)C)C(N)=O
B11: Peptide 254 (peptide)
peptide: {C20 diacid}-[γGlu][γGlu][AEEA][AEEA]RGRH[Trp(7-Me)]AV[βAla]HL[Nle]-NH2
SMILES: CCCC[C@H](NC(=O)[C@H](CC(C)C)NC(=O)[C@H](Cc1c[nH]cn1)NC(=O)CCNC(=O)[C@@H](NC(=O)[C@H](C)NC(=O)[C@H](Cc1c[nH]c2c(C)cccc12)NC(=O)[C@H](Cc1c[nH]cn1)NC(=O)[C@H](CCCNC(=N)N)NC(=O)CNC(=O)[C@H](CCCNC(=N)N)NC(=O)COCCOCCNC(=O)COCCOCCNC(=O)CC[C@H](NC(=O)CC[C@H](NC(=O)CCCCCCCCCCCCCCCCCCC(=O)O)C(=O)O)C(=O)O)C(C)C)C(N)=O
B12: Peptide 257 (peptide)
peptide: {C20 diacid}-[γGlu][γGlu][AEEA][AEEA]ESQH[Trp(7-Me)]AV[βAla]HL[Nle]-NH2
SMILES: CCCC[C@H](NC(=O)[C@H](CC(C)C)NC(=O)[C@H](Cc1c[nH]cn1)NC(=O)CCNC(=O)[C@@H](NC(=O)[C@H](C)NC(=O)[C@H](Cc1c[nH]c2c(C)cccc12)NC(=O)[C@H](Cc1c[nH]cn1)NC(=O)[C@H](CCC(N)=O)NC(=O)[C@H](CO)NC(=O)[C@H](CCC(=O)O)NC(=O)COCCOCCNC(=O)COCCOCCNC(=O)CC[C@H](NC(=O)CC[C@H](NC(=O)CCCCCCCCCCCCCCCCCCC(=O)O)C(=O)O)C(=O)O)C(C)C)C(N)=O

biological target: human GRP receptor (human, UniProt P30550 1-384); experiment: cell-based or functional assay
Sequence (P30550 whole entry): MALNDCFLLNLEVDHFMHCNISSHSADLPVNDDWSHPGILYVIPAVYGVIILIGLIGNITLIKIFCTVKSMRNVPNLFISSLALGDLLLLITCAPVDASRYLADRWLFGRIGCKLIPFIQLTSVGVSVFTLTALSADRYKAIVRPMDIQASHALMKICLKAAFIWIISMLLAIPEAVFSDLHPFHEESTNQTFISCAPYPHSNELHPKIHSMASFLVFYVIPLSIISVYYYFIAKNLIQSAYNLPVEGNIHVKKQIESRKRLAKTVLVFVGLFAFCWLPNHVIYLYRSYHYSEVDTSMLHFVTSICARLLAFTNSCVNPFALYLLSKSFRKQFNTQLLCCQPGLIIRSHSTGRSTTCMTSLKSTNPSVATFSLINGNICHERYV

B1 and {C20 diacid}-[γGlu][AEEA][AEEA]GQH[Trp(7-Me)]AV[BAIBA]HL[Nle]-NH2 [Peptide 263] are within 1.5-fold of each other in “hIP1 GRPR EC50” value: 2.8 nM for the first, 2.7 nM for the second.

{C20 diacid}-[γGlu][AEEA][AEEA]G[Dap](2CE‑PEG‑TMEA)HWAV[βAla]HL[Nle]-NH2 (reading uncertain) [Peptide 262] and B2 are within 1.5-fold of each other in “hIP1 GRPR EC50” value: 4 nM for the first, 4.4 nM for the second.

Compared with B3, B4 is 2.8-fold higher in “hIP1 GRPR EC50” value: 3.7 nM for the first, 10.5 nM for the second.

First: B5
Second: B6
The “hIP1 GRPR EC50” value of the first is 8.5-fold lower: 1.4 nM for the first, 11.9 nM for the second.

Going from {C20 diacid}-[γGlu][γGlu][AEEA][AEEA]GQH[Trp(7-Me)]AV[BABA]HL[Nle]-NH2 [Peptide 259] to {C20 diacid}-[γGlu][γGlu][AEEA][AEEA]GEH[Trp(7-Me)]AV[BABA]HL[Nle]-NH2 [Peptide 247], the “hIP1 GRPR EC50” value falls from 8.2 nM to 1.8 nM (4.6-fold).

Going from {C20 diacid}-[γGlu][AEEA][AEEA]GNH[Trp(7-Me)]AV[3A3MBA]HL[Nle]-NH2 [Peptide 264] to B7, the “hIP1 GRPR EC50” value falls from 8.6 nM to 3.6 nM (2.4-fold).

B8 and {C20 diacid}-[γGlu][AEEA][AEEA]GQHWAV[βAla]HL[Hse(Me)]-NH2 [Peptide 265] are within 1.5-fold of each other in “hIP1 GRPR EC50” value: 6.9 nM for the first, 7.7 nM for the second.

Compared with {C20 diacid}-[γGlu][γGlu][AEEA][AEEA]GNH[Trp(7-Me)]AV[BABA]HL[Nle]-NH2 [Peptide 258], B9 is 1.6-fold lower in “hIP1 GRPR EC50” value: 6 nM for the first, 3.7 nM for the second.

First: B10
Second: {C20 diacid}-[γGlu][AEEA][AEEA]G[Dap](5CTMPA)HWAV[βAla]HL[Nle]-NH2 (reading uncertain) [Peptide 261]
The “hIP1 GRPR EC50” value of the first is 1.9-fold higher: 7.5 nM for the first, 4 nM for the second.

Going from B11 to B12, the “hIP1 GRPR EC50” value rises from 3.7 nM to 12.5 nM (3.4-fold).
